{"source": "patent US8628762B2", "about": "“T-helper cell type 17 lineage-specific adjuvants, compositions and methods” (Icahn School of Medicine at Mount Sinai, priority 2008, dated 2014)", "molecules": {"B1": {"name": "IL-6: cytokine interleukin-6 (Peprotech), 50 ng/mL (protein, UniProt P08505 25-211, looked up)", "Interleukin-6": "FPTSQVRRGDFTEDTTPNRPVYTTSQVGGLITHVLWEIVEMRKELCNGNSDCMNNDDALAENNLKLPEIQRNDGCYQTGYNQEICLLKISSGLLEYHSYLEYMKNNLKDNKKDKARVLQRDTETLIHIFNQEVKDLHKIVLPTPISNALLTDKLESQKEWLRTKTIQFILKSLEEFLKVTLRSTRQT"}}, "system": "Naïve CD4 T-cells", "experiment": "qPCR of lineage genes in naïve CD4 T-cells cultured with DCCM", "type": "cell-based, C57BL/6J mice", "conditions": "quantitative RT-PCR", "description": "Naïve CD4 T cells were isolated first by sorting with MACS® CD4^+ beads (Miltenyi Biotech, Auburn, Calif.) according to manufacturer's instructions and then by fluorescence activated cell sorting (FACS) using a MoFlo™, Vantage, or Influx™ cell sorter for CD25^−CD44^lowCD62L^high cells using allophycocyanin (APC)-conjugated anti-CD25 monoclonal antibody (mAb) (clone PC61.5), FITC-conjugated CD62L mAb (clone MEL-14), and PE-Cy5-conjugated CD44 mAb (clone IM7) (all from eBioscience™, San Diego, Calif.). Cells were grown in complete IMDM (Gibco, Carlsbad, Calif.) supplemented with 10% FBS, 100 μg/mL penicillin, 100 μg/mL streptomycin, 2 mM L-glutamine, 10 mM HEPES, and 1 nM sodium pyruvate, and activated on 48-well tissue-culture plates which had been coated with 4 μg anti-CD3 (clone 2C11) for 3 h at 37° C., then washed 3 times with PBS. Cultures were supplemented with 2 μg/mL anti-CD28 (clone 37-51, a kind gift from J. Allison, Sloan-Kettering Cancer Center) and anti-IL-4 ascites (clone 11B11, a kind gift from T. Moran, Mount Sinai School of Medicine, ATCC number HB188) at 1:500. mAbs 2C11 and 37-51 were purified from hybridoma supernatants by BioXCell Company (West Lebanon, N.H.). When cultured with conditioned medium (CM) from BMDC, T cells were grown in 1:1 CM:fresh complete IMDM. […]\nT cells cultured for 48 hours under the indicated conditions were lysed and RNA isolated by TRIzol® extraction (Invitrogen) according to manufacturer's instructions. […] Quantitative real-time, reverse transcription polymerase chain reaction (qPCR) was conducted on an ABI Prism® 7900 instrument (Applied Biosystems, Foster City, Calif.) with primer pairs and probes as follows. […]\nQuantitative PCR was performed using TaqMan® quantitative PCR Master Mix at a concentration of 1× (Applied Biosystems). […] “Fold inductions” were calculated using the ΔΔCt method relative to T cells activated under neutral conditions (No cytokines or CM). […]", "data": [{"molecule": "B1", "values": [{"measurement": "Foxp3 mRNA induction", "value": "Foxp3 induction was impaired"}]}]}
